The source of these data is patent US20240002497A1 (Merck Sharp & Dohme, published 2024).

Test [1] concerns the target T1, huNav1.7α (human, UniProt Q15858 1-1988). The test can be described thus: cell-based or functional assay.
Test [2] addresses rhNav1.7α + β1-β2-β3 (rhesus monkey). As to the kind of experiment: cell-based or functional assay.
Test [3] deals with T2, huNav1.7α + β1-β2-β3 (human, UniProt Q15858 1-1988; A5A6L6 19-218; O60939 30-215; Q2KI11 23-215). As to the kind of experiment: cell-based or functional assay.
Test [4] concerns the target Rhesus Nav1.7α (rhesus, UniProt Q15858 1-1988 (human entry)). The test can be described thus: cell-based or functional assay.
Test [5] deals with T2, huNav1.7α + β1-β2-β3. As to the kind of experiment: competition FACS vs EC25 of F103275B05(N93R), CHO FlpIn.
For test [6], the target named is T1, huNav1.7α. The test can be described thus: competition FACS vs EC25 of F103275B05(N93R), HEK.
Test [7] deals with T3, huNav1.7α + β1 (human).
T3 construct: HEK293 cells; also called huNav1.7-beta1; huNav1.7-β1
As to the kind of experiment: competition FACS vs EC25 of F103275B05(N93R), HEK.

In test [8] the target is T4, rhNav1.7α + β1-β2-β3 (rhesus monkey).
T4 construct: also called rhNav1.7-beta1-beta2-beta3; rhNav1.7-β1-β2-β3
The test can be described thus: competition FACS vs EC40 of F103275B05(N93R), CHO FlpIn.

Test [9] concerns the target T2, huNav1.7α + β1-β2-β3. As to the kind of experiment: competition FACS vs EC25 of F103275B05(N93R), HEK FlpIn.
The target in test [10] is T5, rhNav1.7α + β1-β2-β3 (rhesus Nav1.7α co-expressed with Navβ1, Navβ2 and Navβ3) (rhesus monkey).
T5 construct: also called rhNav1.7-beta1-beta2-beta3
The test can be described thus: binding FACS; plus = higher activity than reference.

In test [11] the target is T6, huNav1.7(N146S, V194I, F276V, R277Q, E281V, V331M, E504D, D507E, S508N, N533S)-β1-β2-β3 (human, UniProt Q15858 1-1988; Q07699 19-218; O60939 30-215; Q9NY72 23-215).
T6 construct: Transiently on HEK293T cells; The text prints V1941 for V194I; also called chimeric variant of huNav1.7α with all DI huNav1.7α-rhNav1.7α polymorphisms
The test can be described thus: FACS on transiently transfected HEK293T cells. On the procedure: (§1) Binding of the ISVDs to cell-expressed Nav1.7α was detected via murine anti-Flag (Sigma, catalog #F1804). Briefly, cells were resuspended in FACS buffer (PBS, 10% FBS, NaN₃) and transferred to a 96-well V-bottom plate at 1×10^5 cells/well. Purified FLAG3-tagged ISVD was diluted in FACS buffer and added to the cells for 30 minutes at 4° C. […] Prior to the read-out, the samples were resuspended in 1 μg/mL propidium iodide (Sigma, catalog #P4170) to exclude dead cells. Between each step, the cells were centrifuged for 5 minutes at 200 grams and washed with 100 μL/well FACS buffer.
FACS binding studies (as described above) were performed on HEK293T cells transiently transfected with a chimeric variant of huNav1.7α in which all the huNav1.7α-rhNav1.7α polymorphisms of DI are present (N146S, V1941, F276V, R277Q, E281V, V331M, E504D, D507E, S508N, N533S). Replacing the huNav1.7α DI sequence for that of rhNav1.7α is sufficient to abolish the binding of F0103262CO2, F0103265B04, F0103262B06, and F0103265A11 to huNav1.7α, recapitulating the absence of binding on rhNav1.7α (see FIGS. 21A-21B).

The target in test [12] is T7, huNav1.7α+β1-β2-β3 (human, UniProt Q15858 1-1988; Q07699 19-218; O60939 30-215; Q9NY72 23-215).
T7 construct: 5N11S variant; also called huNav1.7-beta1-beta2-beta3; huNav1.7α+Navβ1-Navβ2-Navβ3
As to the kind of experiment: binding FACS, CHO FlpIn cells. Here is the method: as §1
(§2) Crude periplasmic extracts containing ISVDs from phage display selections (as described above) were screened in FACS for binding to huNav1.7α but not to huNav1.5a. […] As used in Table 8, the drawings, and throughout the description, Navβ1, Navβ2, and Navβ3 are human homologs unless specifically identified otherwise.

The target of test [13] is T8, rhNav1.7α+β1-β2-β3 (rhesus monkey α subunit with human β …).
T8 construct: P2A cleaves it into α, β1, β2, β3; also called rhNav1.7-beta1-beta2-beta3
The test can be described thus: binding FACS, CHO FlpIn cells. Here is the method:
as §1, §2

Test [14] deals with T9, huNav1.7α+β1 (human, UniProt Q15858 1-1988; Q07699 19-218).
T9 construct: also called huNav1.7-beta1; HEKa/β1
As to the kind of experiment: binding FACS, HEK293 cells. On the procedure:
as §1, §2

In test [15] the target is T7, huNav1.7α+β1-β2-β3. The test can be described thus: binding FACS, HEK FlpIn cells. On the procedure:
as §1, §2

For test [16], the target named is T10, huNav157chimera14+β1-β2-β3 (human, UniProt Q07699 19-218; O60939 30-215; Q9NY72 23-215).
T10 construct: HEK FlpIn line; also called huNav157 chimera 14-beta1-beta2-beta3; Nav157ch14-β1-β2-β3
The test can be described thus: binding FACS, HEK FlpIn cells. On the procedure:
as §1, §2

In test [17] the target is T11, huNav1.5α+β1-β2-β3 (human, UniProt Q14524 1-2016; A5A6L6 19-218; O60939 30-215; Q2KI11 23-215).
T11 construct: in the cell P2A cleaves it into α, β1, β2, β3; also called huNav1.5-beta1-beta2-beta3
The test can be described thus: binding FACS, HEK FlpIn cells. On the procedure:
as §1, §2

The target of test [18] is T12, huNav1.5α (human, UniProt Q14524 1-2016).
T12 construct: also called huNav1.5 (alpha subunit)
As to the kind of experiment: binding FACS on stable huNav1.x paralog HEK293T cell lines.

The target of test [19] is T13, huNav1.3α (human, UniProt Q9NY46 1-2000).
T13 construct: also called huNav1.3 (alpha subunit)
T13 sequence (Q9NY46 whole entry): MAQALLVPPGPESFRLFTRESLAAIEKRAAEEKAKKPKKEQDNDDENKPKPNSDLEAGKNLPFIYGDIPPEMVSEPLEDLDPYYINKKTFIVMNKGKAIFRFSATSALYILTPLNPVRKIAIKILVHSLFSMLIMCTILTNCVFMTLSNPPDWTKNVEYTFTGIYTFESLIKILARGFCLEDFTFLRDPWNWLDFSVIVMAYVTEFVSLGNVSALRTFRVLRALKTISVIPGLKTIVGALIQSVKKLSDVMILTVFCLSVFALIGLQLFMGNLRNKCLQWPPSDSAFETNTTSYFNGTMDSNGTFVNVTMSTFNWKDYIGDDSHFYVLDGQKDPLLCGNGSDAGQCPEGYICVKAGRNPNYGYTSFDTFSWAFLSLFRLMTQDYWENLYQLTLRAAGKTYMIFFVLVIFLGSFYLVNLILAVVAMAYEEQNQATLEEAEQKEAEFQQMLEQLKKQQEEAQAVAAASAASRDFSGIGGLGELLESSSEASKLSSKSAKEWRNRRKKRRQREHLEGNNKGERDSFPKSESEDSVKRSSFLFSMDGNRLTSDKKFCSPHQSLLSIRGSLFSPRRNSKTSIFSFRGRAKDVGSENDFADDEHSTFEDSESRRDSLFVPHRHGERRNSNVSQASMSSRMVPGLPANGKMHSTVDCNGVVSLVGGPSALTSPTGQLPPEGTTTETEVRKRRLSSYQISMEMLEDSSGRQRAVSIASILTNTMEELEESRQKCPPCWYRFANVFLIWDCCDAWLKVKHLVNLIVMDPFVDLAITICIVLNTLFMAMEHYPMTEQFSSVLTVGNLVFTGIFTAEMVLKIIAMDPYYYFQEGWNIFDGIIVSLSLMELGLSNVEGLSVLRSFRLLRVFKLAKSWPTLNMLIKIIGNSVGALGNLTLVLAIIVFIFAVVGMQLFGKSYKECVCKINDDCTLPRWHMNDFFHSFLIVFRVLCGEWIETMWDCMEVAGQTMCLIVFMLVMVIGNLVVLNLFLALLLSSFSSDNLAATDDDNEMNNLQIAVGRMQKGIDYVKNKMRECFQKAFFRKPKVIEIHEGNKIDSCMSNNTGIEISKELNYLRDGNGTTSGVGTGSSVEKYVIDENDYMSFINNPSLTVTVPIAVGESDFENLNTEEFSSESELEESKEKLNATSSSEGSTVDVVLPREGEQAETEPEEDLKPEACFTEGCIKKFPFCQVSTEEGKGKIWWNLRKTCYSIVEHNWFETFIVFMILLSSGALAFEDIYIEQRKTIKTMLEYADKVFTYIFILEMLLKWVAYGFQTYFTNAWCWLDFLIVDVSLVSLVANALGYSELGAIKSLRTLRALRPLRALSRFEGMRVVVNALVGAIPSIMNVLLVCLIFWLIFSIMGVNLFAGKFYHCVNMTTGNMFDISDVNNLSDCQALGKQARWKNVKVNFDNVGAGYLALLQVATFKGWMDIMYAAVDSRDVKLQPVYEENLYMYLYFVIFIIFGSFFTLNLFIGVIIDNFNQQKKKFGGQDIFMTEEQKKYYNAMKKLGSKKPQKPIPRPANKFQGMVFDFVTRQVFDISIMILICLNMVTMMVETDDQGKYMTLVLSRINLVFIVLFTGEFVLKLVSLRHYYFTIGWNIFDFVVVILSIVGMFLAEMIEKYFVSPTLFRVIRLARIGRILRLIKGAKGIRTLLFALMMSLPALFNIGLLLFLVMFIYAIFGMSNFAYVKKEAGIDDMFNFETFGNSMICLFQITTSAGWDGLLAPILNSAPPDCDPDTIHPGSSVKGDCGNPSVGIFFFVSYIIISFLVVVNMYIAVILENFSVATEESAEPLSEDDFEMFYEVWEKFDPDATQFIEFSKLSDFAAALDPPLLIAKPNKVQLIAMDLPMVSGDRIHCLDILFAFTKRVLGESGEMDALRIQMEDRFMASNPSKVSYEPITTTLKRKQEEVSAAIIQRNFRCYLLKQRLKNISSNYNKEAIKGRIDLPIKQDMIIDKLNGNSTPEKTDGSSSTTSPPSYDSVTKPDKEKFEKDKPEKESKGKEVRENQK
The description is as above.

Test [20] concerns the target T14, huNav1.4α (human, UniProt P35499 1-1836).
T14 construct: also called huNav1.4 (alpha subunit)
Described as above.

Test [21] addresses T15, huNav1.6α (human, UniProt Q9UQD0 1-1980).
T15 construct: also called huNav1.6 (alpha subunit)
The description is as above.

Test [22] concerns the target T16, huNav1.2α (human, UniProt Q99250 1-2005).
T16 construct: also called huNav1.2 (alpha subunit)
The description is as above.

Test [23] addresses T17, huNav1.8α (human, UniProt Q9Y5Y9 1-1956).
T17 construct: also called huNav1.8 (alpha subunit)
Described as above.

Test [24] addresses huNav1.1α (human, UniProt P35498 1-2009). The test is described as above.

T17 sequence (Q9Y5Y9 whole entry): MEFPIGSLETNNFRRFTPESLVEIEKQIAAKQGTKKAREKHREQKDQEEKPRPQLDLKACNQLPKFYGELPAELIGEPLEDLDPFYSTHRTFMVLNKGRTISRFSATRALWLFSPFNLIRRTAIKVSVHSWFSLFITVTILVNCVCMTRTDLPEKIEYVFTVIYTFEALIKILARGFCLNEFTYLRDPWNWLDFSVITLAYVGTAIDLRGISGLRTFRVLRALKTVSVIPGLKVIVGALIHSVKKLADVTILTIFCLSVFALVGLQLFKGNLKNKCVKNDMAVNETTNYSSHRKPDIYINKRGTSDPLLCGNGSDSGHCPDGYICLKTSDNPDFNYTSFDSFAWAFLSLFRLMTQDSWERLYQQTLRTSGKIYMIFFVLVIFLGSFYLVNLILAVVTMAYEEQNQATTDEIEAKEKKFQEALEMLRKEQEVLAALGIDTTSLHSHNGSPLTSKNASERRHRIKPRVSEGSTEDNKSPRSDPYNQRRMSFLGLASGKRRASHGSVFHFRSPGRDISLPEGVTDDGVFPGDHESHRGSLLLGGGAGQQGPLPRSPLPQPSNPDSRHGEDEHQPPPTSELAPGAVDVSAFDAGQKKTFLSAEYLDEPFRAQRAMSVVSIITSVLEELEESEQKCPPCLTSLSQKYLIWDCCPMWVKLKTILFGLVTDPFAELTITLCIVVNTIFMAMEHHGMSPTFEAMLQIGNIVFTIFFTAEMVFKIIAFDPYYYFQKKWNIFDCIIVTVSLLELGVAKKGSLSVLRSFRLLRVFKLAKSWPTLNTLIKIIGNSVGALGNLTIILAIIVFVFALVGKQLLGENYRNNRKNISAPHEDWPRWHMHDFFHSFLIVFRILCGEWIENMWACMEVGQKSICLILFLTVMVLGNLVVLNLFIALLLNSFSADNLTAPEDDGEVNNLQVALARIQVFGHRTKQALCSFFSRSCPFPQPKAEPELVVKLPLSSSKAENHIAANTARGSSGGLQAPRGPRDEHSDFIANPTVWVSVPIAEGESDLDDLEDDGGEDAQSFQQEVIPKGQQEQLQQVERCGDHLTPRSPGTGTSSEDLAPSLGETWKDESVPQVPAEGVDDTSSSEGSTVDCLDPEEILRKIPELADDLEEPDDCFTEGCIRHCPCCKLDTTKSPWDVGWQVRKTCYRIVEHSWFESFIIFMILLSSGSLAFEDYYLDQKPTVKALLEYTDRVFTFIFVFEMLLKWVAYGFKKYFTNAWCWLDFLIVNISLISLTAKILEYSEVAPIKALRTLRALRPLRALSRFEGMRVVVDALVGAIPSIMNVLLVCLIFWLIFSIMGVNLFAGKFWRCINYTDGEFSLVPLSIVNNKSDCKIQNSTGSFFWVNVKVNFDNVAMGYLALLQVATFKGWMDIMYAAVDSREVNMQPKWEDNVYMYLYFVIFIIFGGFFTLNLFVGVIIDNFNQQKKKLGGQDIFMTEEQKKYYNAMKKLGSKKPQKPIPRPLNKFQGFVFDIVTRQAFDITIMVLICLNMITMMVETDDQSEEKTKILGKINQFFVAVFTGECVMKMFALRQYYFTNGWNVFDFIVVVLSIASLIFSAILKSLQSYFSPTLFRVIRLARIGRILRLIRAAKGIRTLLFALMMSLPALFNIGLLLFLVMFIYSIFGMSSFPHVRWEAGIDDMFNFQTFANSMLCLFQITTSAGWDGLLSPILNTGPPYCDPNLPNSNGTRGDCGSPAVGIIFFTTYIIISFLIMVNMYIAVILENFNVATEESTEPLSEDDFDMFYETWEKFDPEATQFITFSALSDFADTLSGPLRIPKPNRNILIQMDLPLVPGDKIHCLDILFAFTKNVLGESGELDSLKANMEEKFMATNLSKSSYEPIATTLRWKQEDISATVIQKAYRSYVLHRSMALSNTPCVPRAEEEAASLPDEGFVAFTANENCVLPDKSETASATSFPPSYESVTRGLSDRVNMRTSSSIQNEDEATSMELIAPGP

B1: F010302379 (bispecific antibody)
chain: DVQLVESGGGLVQPGGSLRLSCAASGSIFNINSMAWYRRAPGKQRELVASSTNGGSTNYADSVKGRFTISRDNAKRVYLQMNSLTPEDTAVYYCRALLQPSIYDISRTYWGQGTLVTVSSGGGGSGGGGSGGGGSGGGGSGGGGSGGGGSGGGGSGGGGSGGGGSGGGGSEVQLVESGGGLVQAGGSLRLSCAASGRTFSRYQMGWFRQAPGKEREFVAYISWSGSTRYVDSVKGRFTISRDNAKNTVYLQMNSLKPEDTAVYHCAAGTAGIISSRPETYDSWGQGTQVTVSSGAADYKDHDGDYKDHDIDYKDDDDKGAAHHHHHH
notes: also called F0103275B05(E1D, N93R)-50GS-F0103500E03(P14A, L108Q)-FLAG3-HIS6
By IC50 is commonly meant the concentration that gives 50% inhibition. B1: the “Qpatch IC50” value in [1] is 111 nM; in [2], 131 nM; in [3] it was 3.4 nM; in [4] it was 133 nM. The IC50 in [5] came to 19 nM; in test [6], 85 nM; in test [7] it was 150 nM; in test [8], 4.8 nM; in test [9], 16 nM.

B2: F010301886 (VHH)
VHH: EVQLVESGGGLVQPGGSLRLSCATTSRAFIRDVFTGWYRRVPGKERELVARIYNGGNTQYADFAKGRFSISRDNAKKMVTLRMSNLKPEDTGVYYCLFSGTINTGREYRSGDYWGQGTLVTVSS
notes: also called F0103464B09(N58Q); N58Q
For B2, in [10], the “EC50 fold change compared to reference” value was found to be 2 fold.

B3: F010301892 (VHH)
VHH: EVQLVESGGGLVQPGGSLRLSCATTSRAFIRDLFTGWYRRVPGKERELVARIYNGGNTNYADFAKGRFSISRDNAKKMVTLRMSNLKPEDTGVYYCLFSGTINTGREYRSGDYWGQGTLVTVSS
notes: also called F0103464B09(V33L); V33L
As for B3, the “EC50 fold change compared to reference” value in [10] was found to be 3 fold.

B4: F010301888 (VHH)
VHH: EVQLVESGGGLVQPGGSLRLSCATTHRAFIRDVFTGWYRRVPGKERELVARIYNGGNTNYADFAKGRFSISRDNAKKMVTLRMSNLKPEDTGVYYCLFSGTINTGREYRSGDYWGQGTLVTVSS
notes: also called F0103464B09(S26H); S26H
As to B4, the “EC50 fold change compared to reference” value in test [10] was 3 fold.

B5: F010302377 (bispecific antibody)
chain: DVQLVESGGGLVQPGGSLRLSCAASGSIFNINSMAWYRRAPGKQRELVASSTNGGSTNYADSVKGRFTISRDNAKRVYLQMNSLTPEDTAVYYCRALLQPSIYDISRTYWGQGTLVTVSSGGGGSGGGGSGGGGSGGGGSGGGGSGGGGSGGGGSGGGGSGGGGSGGGGSEVQLVESGGGLVQAGGSLRLSCAASKSILSFAYMRWYRQAPGKQREFVASIAIGGATSYTDSVKGRFTISRDNAKNTVYLQMNSLKPEDTAVYYCSAPAGQYRGQGTLVTVSSGAADYKDHDGDYKDHDIDYKDDDDKGAAHHHHHH
notes: also called F0103275B05(E1D, N93R)-50GS-F0103492E09-FLAG3-HIS6
On to B5, for which the “Qpatch IC50” value came out at 74 nM in test [1], 75 nM in [2], 0.8 nM in [3] and 104 nM in [4]. Moreover, the IC50 in test [5] came to 4.1 nM; in test [6], 86 nM; in test [7], 140 nM; in test [8] it was 1.2 nM; in test [9] it was 5.2 nM.

B6: F010302378 (bispecific antibody)
chain: DVQLVESGGGLVQPGGSLRLSCAASGSIFNINSMAWYRRAPGKQRELVASSTNGGSTNYADSVKGRFTISRDNAKRVYLQMNSLTPEDTAVYYCRALLQPSIYDISRTYWGQGTLVTVSSGGGGSGGGGSGGGGSGGGGSGGGGSGGGGSGGGGSGGGGSGGGGSGGGGSEVQLVESGGGLVQAGSSLSLSCAASGRALSTYAMGWFRQAPGKEREFVARISRSGITTYYTDSVKGRFTISRDRAKDTVYLQMNSLKPEDTAIYLCAADASTNPAGYYLRNRYDYWGQGTLVTVSSGAADYKDHDGDYKDHDIDYKDDDDKGAAHHHHHH
notes: also called F0103275B05(E1D, N93R)-50GS-F0103495F09-FLAG3-HIS6
Regarding B6, the “Qpatch IC50” value in test [1] worked out at 115 nM; in test [2] it was 2.6 nM; in test [3] it was 2.3 nM; in test [4], 103 nM. Further, the IC50 in test [5] stood at 10 nM; in test [6] it was 80 nM; in [7], 5.2 nM; in test [8], 6.6 nM; in test [9] it was 12 nM.

B7: F0103265B04 (parental)-FLAG-HIS6 (VHH)
VHH: EVQLVESGGGLVQPGGSLRLSCAAPSFIFSNNYMEWYRQAPGKQRDWVARITGRGNTNYLDSVKGRFTISRDDAKNTVYLEIDSLKPEDTAVYYCSALWYGGRAWGKGTLVTVSS
For orientation: EC50 means the concentration that produces a half-maximal response. B7: the binding result in test [11] is on record as “no binding (tested: 1 µM)”; in [13], “no binding”; in [17], “no binding”; in [18], “no binding”; in test [19], “no binding”; in test [20] it was “no binding”. Besides, the binding result in [21], in test [22], in test [23] and in test [24] was “no binding” throughout. For the same molecule, the EC50 worked out at 5.4 nM in test [12], 5.5 nM in [14], 8.1 nM in test [15] and 8.5 nM in [16].
